Assay results: patent KR20220059924A (dated 2022)

Columns and labels:
[1] = biological target: T1, 개 Tie2 단백질 (dog, UniProt A0A8I3S0B4 27-1128); assay: flow cytometry, HEK293T cells transfected with dog Tie2
T1 construct: whole, on cells; also called dog Tie2

[2] = biological target: T2, 랫 Tie2 단백질 (rat, UniProt A0ABK0L6J5 19-1116); assay: flow cytometry, HEK293T cells transfected with rat Tie2
T2 construct: whole, on cells; also called rat Tie2

[3] = biological target: T3, 마우스 Tie2 단백질 (mouse, UniProt Q02858 23-1122); assay: flow cytometry, HEK293T cells transfected with mouse Tie2
T3 construct: whole, on cells; also called mouse Tie2
T3 sequence (Q02858 23-1122): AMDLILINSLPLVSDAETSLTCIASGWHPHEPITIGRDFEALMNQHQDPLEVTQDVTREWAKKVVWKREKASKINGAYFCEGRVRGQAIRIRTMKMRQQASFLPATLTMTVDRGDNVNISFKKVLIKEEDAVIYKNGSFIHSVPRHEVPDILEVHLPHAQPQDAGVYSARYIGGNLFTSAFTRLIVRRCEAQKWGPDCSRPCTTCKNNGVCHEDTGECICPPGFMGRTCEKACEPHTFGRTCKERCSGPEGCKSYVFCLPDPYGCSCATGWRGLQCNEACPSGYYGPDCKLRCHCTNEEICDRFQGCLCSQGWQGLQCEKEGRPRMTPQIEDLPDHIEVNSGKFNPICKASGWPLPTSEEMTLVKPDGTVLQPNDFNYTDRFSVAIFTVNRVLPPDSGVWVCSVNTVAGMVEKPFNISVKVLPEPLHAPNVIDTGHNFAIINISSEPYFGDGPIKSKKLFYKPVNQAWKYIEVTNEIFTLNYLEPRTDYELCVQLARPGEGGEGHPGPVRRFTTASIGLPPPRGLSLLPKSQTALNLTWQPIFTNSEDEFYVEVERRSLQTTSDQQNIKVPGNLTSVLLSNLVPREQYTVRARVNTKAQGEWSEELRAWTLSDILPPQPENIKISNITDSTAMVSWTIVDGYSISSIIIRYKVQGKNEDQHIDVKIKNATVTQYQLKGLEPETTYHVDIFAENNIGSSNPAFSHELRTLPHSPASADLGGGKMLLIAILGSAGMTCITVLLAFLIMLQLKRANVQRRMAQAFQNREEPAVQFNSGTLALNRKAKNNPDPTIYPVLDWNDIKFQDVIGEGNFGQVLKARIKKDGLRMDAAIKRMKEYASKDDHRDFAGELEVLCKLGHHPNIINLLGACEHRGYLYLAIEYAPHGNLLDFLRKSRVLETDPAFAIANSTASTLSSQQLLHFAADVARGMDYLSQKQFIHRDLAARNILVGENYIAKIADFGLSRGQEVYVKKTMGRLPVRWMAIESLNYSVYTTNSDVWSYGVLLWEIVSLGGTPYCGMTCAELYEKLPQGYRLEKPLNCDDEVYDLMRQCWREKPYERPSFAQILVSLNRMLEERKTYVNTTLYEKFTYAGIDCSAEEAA

- binding result [1]: no binding (tested: 5ug/ml)
- binding result [2]: no binding (tested: 5ug/ml)
- binding result [3]: no binding (tested: 5ug/ml)
B1: Ang1mab2-1 (antibody, human IgG1, kappa, V domains shown)
VH: QVQLVESGGGVVQPGRSLRLSCAASGFTFSSYAMHWVRQAPGKGLEWVAVISYDGSNKYYADSVKGRFTISRDNSKNTLYLQMNSLRAEDTAVYYCARQYSGVFEYWGQGTLITVSS
VL: DIQMTQSPDSLAVSLGERATINCKSSQSVLYRSNNRNYLAWYQQKLGQPPQLLIYWASTRESGVPDRFSGSGSGADFTLTISSLQAEDVAVYYCQQYFSIPYTFGQGTKLEIKR
notes: also called 제2 기본 항체
